The record followed here is publication PMC12915166 (2025).

Assay [1] has as its target T1, HA-2 (HA-2V allele), encoded by MYO1G peptide on HLA-A*02:01 (human).
T1 peptide: YIGEVLVSV

For assay [2], the target named is T2, HA-1 (HA-1H allele), encoded by ARHGAP45 peptide on HLA-A*02:06 (human).
T2 peptide: VLHDDLLEA
Briefly: activation reporter or marker.

B1: anti-HA-2V TCR clone 6 (TCR)
alpha TRAV38-2DV8 TRAJ34 CDR3: AYRRFYNTDKLI
beta TRBV19 TRBJ1-1 CDR3: ASRSAGYAEAF
In turn, B1 came in with an EC50 of peptide in assay [1] of 21 nM.

B2: anti-HA-1H TCR clone 7 (TCR)
alpha TRAV3 TRAJ40 CDR3: AVRAPTSGTYKYI
beta TRBV7-9 TRBJ2-1 CDR3: ASSLVSGNEQF
For the molecule B2, the binding result in assay [2] was “recognises”.

B3: anti-HA-2V TCR clone 7 (TCR)
alpha TRAV21 TRAJ42 CDR3: AVRSGYGGSQGNL
beta TRBV7-8 TRBJ2-5 CDR3: ASSLAGGSLQETQY
Take B3: the EC50 of peptide in assay [1] stood at 0.7 nM.
